According to patent US20230064703A1:

B1: anti-GITR mouse monoclonal antibody 223F12C4 (antibody, V domains shown)
VH: QVQLQQSGAELVKPGASVKVSCKASGYSFTSYWIHWVKQRPGQGLEWIGRIHPSDGDIDHNEKFKGKATLTVDKSSSTAYMQLTSLTSEDSAVYYCLCYIMDYWGQGTSVTVSS
VL: DIQMNQSPSSLSASLGDTIAITCHASQNINVWLSWYQQKPGNIPKLLIYKAAKLQTGVPSRFSGSGSGTGFTLTISSLQPEDIATYYCHQGQDYPLTFGAGTKLELK
B2: anti-GITR mouse monoclonal antibody 225H7D12 (antibody, V domains shown)
VH: QVQLQQSGAEVMKPGASVKLSCKTTGYRFTGYWIEWVKQRPGHGLEWIGEILPGSGVSNNNEKFRDKATFTADTSSNTAYIQLSSLTTDDSAIYYCARKASYYTMDYWGQGTSVTVSS
VL: QIVLTQSPAIMSASLGERVTMTCTASSSVSSFYFHWYQQKPGSSPKLWIYSISNLASGVPTRFSGSGSGTSYSLTISSMEAEDAATYYCHQYHRSPRTFGGGTKLEIK
B3: anti-GITR mouse monoclonal antibody 204C10G12 (antibody, V domains shown)
VH: QVQLQQPGAELVKPGASVKMSCKASGYTFTSYWITWVKQRPGQGLEWIGDIYPGSDSTNYNEKFKNKATLTVDTSSSTAYMQLSSLTSEDSAVYYCARGDDFWYFDVWGTGTTVTVSS
VL: DVLMTQTPLSLPVSLGDQASISCRSSQSIVHSNGNTYLEWYLQKPGQSPKLLIYKVSNRFSGVPDRFSGSGSGTDFTLKISRVEAEDLGVYYCFQGSHVPLTFGAGTKLELK
B4: anti-GITR mouse monoclonal antibody 223H11H1 (antibody, V domains shown)
VH: EVQLQQSGPELVKPGASVKISCKASGYTFTAHYMNWVKKSQGKSLEWIGDINPDNGIIRYNQKFKDKATLTVDKSSSTVFLEFRSLASEDSAVYYCARREALDYWGQGSSVTVSS
VL: DVLMTQIPLSLTVSLGDQASISCRSSQSIVYSNGKVYLNWYQQKPGQSPKLLIYKVSDRFSGVPDRFSGSGSGTDFTLKINRVEAEDLGVYYCLQGSHIPWTFGGGTKLEIK
B5: anti-GITR mouse monoclonal antibody 274C7H2 (antibody, V domains shown)
VH: QVQLQQSGAELAKPGASVKLSCKASGYTFTSYWMHWVKQRPGQGLEWIGYINPSSGYTKYNQKFKDKATLTADKSSSTAYMQLSSLTYEDSAVYYCARNPSYDYYAMDYWGQGTSVTVSS
VL: QAVVTQESALTTSPGETVTLTCRSSTGAVTTSNYANWVQEKPDHLFTGLIGGTNNRAPGVPARFSGSLIGDKAALTITGAQTEDEAIYFCALWYSNHFIFGSGTKVTVL
B6: anti-GITR mouse monoclonal antibody 45F1F3 (antibody, V domains shown)
VH: DVQLQESGPGLVKPSQSLSLTCTVTGYSITIDYAWNWIRQFPGNKLEWMGYISNSGYTSYNPSLKSRISFTRDTSKNQFFLQLNSVTPEDSATYYCTRSGHYDLFDYWGQGTTLTVSS
VL: DVVMTQAPLTLSVTIGQPASISCKSSQSLFDRDGKTYLSWLLERPGQSPKRLIYLVSNLDSGVPDRFTGSGSGTDFTLKISRVEAEDLGVYYCWQGTHFPYTFGGGTKVEMK
B7: anti-GITR mouse monoclonal antibody 384H3H11 (antibody, V domains shown)
VH: QVQLKQSGPGLVQPSQSLSITCTVSGFSLTSYGVHWVRQSPGKGLEWLGVIWSGGSTDYNAAFISRLSISKDNSKSQVFFKMNSLQANDTAIYYCARIGLRSFAYWGQGTLVTVSA
VL: DIVMTQSPSSLTVTAGEKVTMSCKSSQSLLNSGNQKNYLTWYQQKPGQPPKLLIYWASTRESGVPDRFTGSGSGTDFTLTISSVQAEDLAVYYCQNDYSYPFTFGSGTKLEIK
B8: anti-GITR mouse monoclonal antibody 225A8D9 (antibody, V domains shown)
VH: QVQLQQSGPELVKPGASVKISCKASGYAFSSSWMNWVKQRPGKGLEWIGRIYPGDGNINYDGKFKGEATLTADKSSSTAYIQLSSLTSEDSAVYFCARSAWLGKTYVMDYWGQGTSVTVSS
VL: EIVVTQSPAITAASLGQKVTITCSASSSVTYMNWYQQKSGTSPKPWIYEISKLASGVPAHFSGSGSGTSYSLTISSLEAEDAAIYYCQQWNFPFTFGSGTKVEIR
B9: humanized antibody 45F1F3 VH1.1 + VL1 (antibody, V domains shown)
VH: QVQLQESGPGLVKPSQTLSLTCTVTGYSITIDYAWNWIRQPPGKGLEWIGYISNSGYTSYNPSLKSRVTFSRDTSKNQFSLKLSSVTAADTAVYYCTRSGHYDLFDYWGQGTTVTVSS
VL: DVVMTQSPLSLPVTLGQPASISCKSSQSLFDRDGKTYLSWFQQRPGQSPRRLIYLVSNLDSGVPDRFSGSGSGTDFTLKISRVEAEDVGVYYCWQGTHFPYTFGGGTKVEIK
B10: humanized antibody 270C5C10 VH1.2 + VL1 (antibody, V domains shown)
VH: QVQLVQSGAEVKKPGASVKVSCKASGYTFTDNYMNWVRQAPGQSLEWIGDINPNNGGSRYKEKFKDRATLTVDTSIRTAYMELSRLRSDDTAVYYCANPGSYGFAYWGQGTLVTVSS
VL: DVVMTQSPLSLPVTLGQPASISCKSSQSLLDSDGRTYLNWFQQRPGQSPRRLIYLVSQLDSGVPDRFSGSGSGTDFTLKISRVEAEDVGVYYCWQGTHFPWTFGGGTKLEIK
B11: humanized antibody 270C5C10 VH1.4 + VL1 (antibody, V domains shown)
VH: QVQLVQSGAEVKKPGASVKVSCKASGYTFTDNYMNWARQSPGQSLEWIGDINPNNGGSRYKEKFKDRATLTVDTSIRTAYMELSRLRSDDTAVYYCANPGSYGFAYWGQGTLVTVSS
VL: DVVMTQSPLSLPVTLGQPASISCKSSQSLLDSDGRTYLNWFQQRPGQSPRRLIYLVSQLDSGVPDRFSGSGSGTDFTLKISRVEAEDVGVYYCWQGTHFPWTFGGGTKLEIK
B12: humanized antibody 225H7D12 VH1.1 + VL1.2 (antibody, V domains shown)
VH: QVQLVQSGAEVKKPGASVKVSCKTTGYRFTGYWIEWVRQAPGQGLEWIGEILPGSGVSNNNEKFRDRATMTADTSISTAYMELSRLRSDDTAVYYCARKASYYTMDYWGQGTLVTVSS
VL: DIQMTQSPSSLSASVGDRVTITCTASSSVSSFYFHWYQQKPGKAPKLWIYSISNLASGVPSRFSGSGSGTSYTLTISSLQPEDFATYYCHQYHRSPRTFGGGTKLEIK
B13: humanized antibody 225H7D12 VH1.3 + VL1.2 (antibody, V domains shown)
VH: QVQLVQSGAEVKKPGASVKVSCKASGYRFTGYWIEWVKQAPGQGLEWIGEILPGSGVSNNNEKFRDRATMTADTSINTAYMELSRLRSDDTAVYYCARKASYYTMDYWGQGTLVTVSS
VL: DIQMTQSPSSLSASVGDRVTITCTASSSVSSFYFHWYQQKPGKAPKLWIYSISNLASGVPSRFSGSGSGTSYTLTISSLQPEDFATYYCHQYHRSPRTFGGGTKLEIK
B14: humanized antibody 45F1F3 VH1.4 + VL1.1 (antibody, V domains shown)
VH: DVQLQESGPGLVKPSQTLSLTCTVTGYSITIDYAWNWIRQPPGKGLEWMGYISNSGYTSYNPSLKSRITFSRDTSKNQFFLKLSSVTAADTAVYYCTRSGHYDLFDYWGQGTTVTVSS
VL: DVVMTQSPLSLPVTLGQPASISCKSSQSLFDRDGKTYLSWLLQRPGQSPRRLIYLVSNLDSGVPDRFSGSGSGTDFTLKISRVEAEDVGVYYCWQGTHFPYTFGGGTKVEIK
B15: humanized antibody 45F1F3 VH1.3 + VL1.1 (antibody, V domains shown)
VH: QVQLQESGPGLVKPSQTLSLTCTVTGYSITIDYAWNWIRQPPGKGLEWMGYISNSGYTSYNPSLKSRVTISRDTSKNQFFLKLSSVTAADTAVYYCTRSGHYDLFDYWGQGTTVTVSS
VL: DVVMTQSPLSLPVTLGQPASISCKSSQSLFDRDGKTYLSWLLQRPGQSPRRLIYLVSNLDSGVPDRFSGSGSGTDFTLKISRVEAEDVGVYYCWQGTHFPYTFGGGTKVEIK
B16: chimeric antibody 223F12C4 (human IgG1) (antibody, V domains shown)
VH: QVQLQQSGAELVKPGASVKVSCKASGYSFTSYWIHWVKQRPGQGLEWIGRIHPSDGDIDHNEKFKGKATLTVDKSSSTAYMQLTSLTSEDSAVYYCLCYIMDYWGQGTSVTVSS
VL: DIQMNQSPSSLSASLGDTIAITCHASQNINVWLSWYQQKPGNIPKLLIYKAAKLQTGVPSRFSGSGSGTGFTLTISSLQPEDIATYYCHQGQDYPLTFGAGTKLELKR
B17: chimeric antibody 204C10G12 (human IgG1) (antibody, V domains shown)
VH: QVQLQQPGAELVKPGASVKMSCKASGYTFTSYWITWVKQRPGQGLEWIGDIYPGSDSTNYNEKFKNKATLTVDTSSSTAYMQLSSLTSEDSAVYYCARGDDFWYFDVWGTGTTVTVSS
VL: DVLMTQTPLSLPVSLGDQASISCRSSQSIVHSNGNTYLEWYLQKPGQSPKLLIYKVSNRFSGVPDRFSGSGSGTDFTLKISRVEAEDLGVYYCFQGSHVPLTFGAGTKLELKR
B18: chimeric antibody 274C7H2 (human IgG1) (antibody, V domains shown)
VH: QVQLQQSGAELAKPGASVKLSCKASGYTFTSYWMHWVKQRPGQGLEWIGYINPSSGYTKYNQKFKDKATLTADKSSSTAYMQLSSLTYEDSAVYYCARNPSYDYYAMDYWGQGTSVTVSS
VL: QAVVTQESALTTSPGETVTLTCRSSTGAVTTSNYANWVQEKPDHLFTGLIGGTNNRAPGVPARFSGSLIGDKAALTITGAQTEDEAIYFCALWYSNHFIFGSGTKVTVLR
B19: chimeric antibody 384H3H11 (human IgG1) (antibody, V domains shown)
VH: QVQLKQSGPGLVQPSQSLSITCTVSGFSLTSYGVHWVRQSPGKGLEWLGVIWSGGSTDYNAAFISRLSISKDNSKSQVFFKMNSLQANDTAIYYCARIGLRSFAYWGQGTLVTVSA
VL: DIVMTQSPSSLTVTAGEKVTMSCKSSQSLLNSGNQKNYLTWYQQKPGQPPKLLIYWASTRESGVPDRFTGSGSGTDFTLTISSVQAEDLAVYYCQNDYSYPFTFGSGTKLEIKR
B20: chimeric antibody 172H7B9(H-La) (human IgG1) (antibody, V domains shown)
VH: QVTLKESGPGILQSSQTLSLTCSFSGFSLSPSGMGVTWIRQPSGKGLEWLAHIYWDDVKRYNPSLKSRLTISKDTSRNQVFLKITGVDTADTATYYCARRGSYSDYGGWSFDVWGTGTTVTVSS
VL: DIVMTQSPSSLSVSAGEKVTMSCKSSQSLFNSGNQKNYLAWYQQKPGQPPKLLIYGASTRESGVPDRFTGSGSGSDFTLTISSVQAEDLAVYYCQNDHSYPPTFGSGTKLEIKR
B21: chimeric antibody 225A8D9 (human IgG1) (antibody, V domains shown)
VH: QVQLQQSGPELVKPGASVKISCKASGYAFSSSWMNWVKQRPGKGLEWIGRIYPGDGNINYDGKFKGEATLTADKSSSTAYIQLSSLTSEDSAVYFCARSAWLGKTYVMDYWGQGTSVTVSS
VL: EIVVTQSPAITAASLGQKVTITCSASSSVTYMNWYQQKSGTSPKPWIYEISKLASGVPAHFSGSGSGTSYSLTISSLEAEDAAIYYCQQWNFPFTFGSGTKVEIRR

The binders below were run against human GITR expressed on Cho-K1 cells (human) (UniProt Q9Y5U5) (assay: FACS, Cho-K1 cells expressing human GITR, mouse mAb, iFluor 647 anti-mouse IgG detection).
human GITR expressed on Cho-K1 cells (human), sequence (Q9Y5U5 26-241): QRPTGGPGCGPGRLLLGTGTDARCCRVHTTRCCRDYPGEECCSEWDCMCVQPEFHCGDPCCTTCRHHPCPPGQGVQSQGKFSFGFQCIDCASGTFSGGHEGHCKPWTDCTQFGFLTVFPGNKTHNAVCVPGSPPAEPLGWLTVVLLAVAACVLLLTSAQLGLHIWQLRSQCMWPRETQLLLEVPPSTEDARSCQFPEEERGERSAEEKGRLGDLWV

Binder | EC50
B1 | 0.000454 µg/mL
B2 | 0.000522 µg/mL
B3 | 0.000199 µg/mL
B4 | 0.000931 µg/mL
B5 | 0.141 µg/mL
B6 | 0.000508 µg/mL
B7 | 0.00497 µg/mL
B8 | 0.0026 µg/mL

These binders were tested against human GITR expressed on Cho-K1 cells (human) (UniProt Q9Y5U5) (assay: FACS binding assay with GITR/Cho-K1, humanized antibody).

Binder | EC50
B9 | 0.107 µg/mL
B10 | 0.0424 µg/mL
B11 | 0.0558 µg/mL
B12 | 0.0755 µg/mL
B13 | 0.082 µg/mL
B14 | 0.0704 µg/mL
B15 | 0.106 µg/mL

These binders were tested against human GITR expressed on Cho-K1 cells (human) (UniProt Q9Y5U5) (assay: FACS, chimeric antibody on GITR/Cho-K1 cells, geometric mean, 4-parameter fit).

Binder | EC50
B16 | 1.59 µg/mL
B17 | 19400 µg/mL
B18 | 331 µg/mL
B19 | 219 µg/mL
B20 | 0.0499 µg/mL
B21 | 0.252 µg/mL
